In patent US11407811B2, “Fusion protein, preparation method therefor and use thereof” (JIANGSU RONGTAI BIOTECH CO., LTD., priority 2017, dated 2022):

Key:
mouse spleen lymphocytes = assay: Proliferation of mouse spleen lymphocytes (ConA, MTT); type: cell-based; details: for A570 nm/A630 nm / PI (%): with ConA 5 μg/mL
Description: Tris-NH4Cl was used to break the red blood cells, which were allowed to stand in an ice water bath for 4 min and centrifuged (1000 rpm, 5 min), the supernatant was discarded, and the cells were washed twice with sterile PBS.
The cells were statically cultured in a cell incubator at 37° C. for 48 h. After the completion of the culture, 20 μL of MTT was added to each well, and the culture was continued for 4 h. Finally, all the solutions in each well were discarded, 100 μL of DMSO was added to each well, and the mixture was shaken and detected by a microplate reader for OD value at 570 nm. 5 parallels were preformed for per well.

[1] = test system: choroidal blood flow in rabbit eyes; assay: Choroidal blood flow in rabbit eyes (color microsphere technique); type: in vivo; details: 128 μg intravitreal injection; for Blood flow: rabbit eyes with high intraocular pressure
Description: New Zealand white rabbits with weight of 2.5-3.0 kg were randomly divided into […], which were labeled as a control group, and fusion protein I, protein II, protein III, protein IV, and protein V groups. White rabbits in each group were anesthetized with 35 mg/kg xylazine via intramuscular injection, and then anesthesia was maintained with half of the initial amount via intramuscular injection per hour. The intraocular pressure of the left eye was increased to 40 mmHg, under which the blood flow can be reduced to ⅓ of the normal value. The left ventricle was cannulated through right carotid artery for injection of microspheres (for the calculation of ocular blood flow), and the femoral artery was cannulated for blood collection. Each group was given physiological saline, 128 μg of fusion protein I, 128 μg of protein II, 128 μg of protein III, 128 μg of protein IV, and 128 μg of protein V via intravitreal injection. The ocular blood flow of rabbit eyes with high intraocular pressure was measured by a color microsphere technique at 0, 30, and 60 minutes after administration. At each time point, 0.2 mL (about 2 million) of microspheres were injected. Immediately after the microspheres were injected, blood was collected through the femoral artery for 60 seconds, and placed in a heparinized anticoagulant tube, and the amount of blood collected was recorded. After the last blood collection, the animals were sacrificed with 100 mg/kg phenobarbital via intravenous infusion. The eyeballs were removed, and the retina, choroid, iris and ciliary body were separated, and the tissue weight was recorded. The tissue blood flow at each time point was calculated with the following formula: Qm=(Cm×Qr)/Cr, where Qm represented tissue blood flow in μL/min/mg; Cm was the number of microspheres per milligram of tissue; Qr was blood flow in μL/min; and Cr was the number of blood microspheres as a reference.

[2] = test system: gastric cancer cell MGC-803; assay: MTT assay, proliferation of gastric cancer cell MGC-803; type: cell-based
Description: The MTT assay was used to detect the inhibitory effect of the integrin blocker fusion protein obtained in Example 1 on the proliferation of various tumor cells, including melanoma cell B16F10, gastric cancer cell MGC-803, lung cancer cell A549, liver cancer cell Hep-G2, breast cancer cell MDA-MB-231, colon cancer cell HCT-116, human glioma U87, and cervical cancer cell Hela.
The tumor cells were cultured in a 5% CO2 incubator at 37° C. to a density of 90% or more, and collected by trypsinization. The cells were resuspended in the culture liquid and counted under a microscope. The cell concentration was adjusted to 3.0×10^4 cells/mL. The cell suspension was inoculated into a 96-well plate at 100 μL per well and cultured overnight in a 5% CO2 incubator at 37° C. […] After the cells were fully adhered, each dilution was added to a 96-well plate at 100 μL per well, respectively. […] 20 μL of 5 mg/mL MTT was added to each well of a 96-well plate, and incubation was continued for 4 hours. The medium was aspirated and 100 μL of DMSO per well were added to dissolve. The absorbance was measured at 570 nm with a microplate reader with a reference wavelength of 630 nm, and the proliferation inhibition (PI) was calculated. The formula is as follows: […]
where Ntest is the OD value of the test group and Ncontrol is the OD value of the blank control group.
The test was repeated 5 times independently. The results obtained from the test were calculated as mean±SD, and statistical t-test was performed. P<0.05 was considered as a significant difference, and P<0.01 was considered as an extremely significant difference.

B1: Protein II: IgG2-Fc linked to antiangiogenesis polypeptide EDSM-Y via a flexible linker; SEQ ID NO: 17 (protein)
chain: ERKCCVECPPCPAPPVAGPSVFLFPPKPKDTLMISRTPEVTCVVVDVSHEDPEVQFNWYVDGVEVHNAKTKPREEQFNSTFRVVSVLTVVHQDWLNGKEYKCKVSNKGLPAPIEKTISKTKGQPREPQVYTLPPSREEMTKNQVSLTCLVKGFYPSDISVEWESNGQPENNYKTTPPMLDSDGSFFLYSKLTVDKSRWQQGNVFSCSVMHEALHNHYTQKSLSLSPGKGGGGSGGGGSGGGGSFQPVLHLVALNSPLSGGMRGIRGADFQCFQQARAVGLAGTFRAGGGGRGD
inhibition of mouse spleen lymphocytes (mouse spleen lymphocytes; compared with the ConA group): could inhibit mouse spleen lymphocytes to some extent | A570 nm/A630 nm (mouse spleen lymphocytes; dose 8 μg/mL): 0.5514 ± 0.0187 | PI (%) (mouse spleen lymphocytes; dose 8 μg/mL): 6.84% | A570 nm/A630 nm (mouse spleen lymphocytes; dose 32 μg/mL): 0.4637 ± 0.0155 | PI (%) (mouse spleen lymphocytes; dose 32 μg/mL): 21.66% | A570 nm/A630 nm (mouse spleen lymphocytes; dose 128 μg/mL): 0.3825 ± 0.0103 | PI (%) (mouse spleen lymphocytes; dose 128 μg/mL): 35.38% | Blood flow ([1]; 0 min after administration): 22.9 ± 2.5 µL/min/mg | Blood flow ([1]; 30 min after administration): 15.7 ± 1.3 µL/min/mg | Blood flow ([1]; 60 min after administration): 13.9 ± 1.2 µL/min/mg | choroidal blood flow ([1]; all observation time points): significantly increased | A570 nm/A630 nm ([2]; dose 1 μg/mL): 1.1122 ± 0.0374 | PI (%) ([2]; dose 1 μg/mL): 8.98% | A570 nm/A630 nm ([2]; dose 2 μg/mL): 1.0149 ± 0.0253 | PI (%) ([2]; dose 2 μg/mL): 16.94% | A570 nm/A630 nm ([2]; dose 4 μg/mL): 0.8231 ± 0.0396 | PI (%) ([2]; dose 4 μg/mL): 32.64% | A570 nm/A630 nm ([2]; dose 8 μg/mL): 0.7231 ± 0.0215 | PI (%) ([2]; dose 8 μg/mL): 40.82% | PI (%) ([2]; dose 8 μg/mL, listed as protein II): about 40% | A570 nm/A630 nm ([2]; dose 16 μg/mL): 0.5216 ± 0.0192 | PI (%) ([2]; dose 16 μg/mL): 57.31% | A570 nm/A630 nm ([2]; dose 32 μg/mL): 0.4398 ± 0.0347 | PI (%) ([2]; dose 32 μg/mL): 64.01% | A570 nm/A630 nm ([2]; dose 64 μg/mL): 0.3378 ± 0.0286 | PI (%) ([2]; dose 64 μg/mL): 72.35% | A570 nm/A630 nm ([2]; dose 128 μg/mL): 0.2203 ± 0.0147 | PI (%) ([2]; dose 128 μg/mL): 81.97% | A570 nm/A630 nm ([2]; dose 256 μg/mL): 0.0987 ± 0.0159 | PI (%) ([2]; dose 256 μg/mL): 91.92%
